The values that follow come from the RNAGym collection of RNA variant scans (doi:10.1093/molbev/msab373).

B1: Azoarcus group I ribozyme (parent)
chain: GUGCCUUGCGCCGGGAAACCACGCAAGGGAUGGUGUCAAAUUCGGCGAAACCUAAGCGCCCGCCCGGGCGUAUGGCAACGCCGAGCCAAGCUUCGGCGCCUGCGCCGAUGAAGGUGUAGAGACUAGACGGCACCCACCUAAGGCAAACGCUAUGGUGAAGGCAUAGUCCAGGGAGUGGCGAAAGUCACACAAACCGG

In the data set the parent is B1. Nature of the data set: reverse-splicing fitness (ratio to wild type); higher = more active; in vitro selection; Mg2+ level not given. The essentials:
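An in vitro group I ribozyme library with randomized positions was T7-transcribed and gel-purified. In triplicate, 10 pmol RNA in EPPS pH 7.5 was reacted with 50 pmoles of a 30-nt RNA substrate for 1 h at 37 °C across several added MgCl2 levels (1–48 mM), then stopped with EDTA. Products were reverse transcribed from a substrate-complementary primer, PCR-amplified and sequenced (HiSeq 4000). Fitness is a variant's read proportion after selection over that before, normalised to wild type.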
Regarding GUGCCUUGCGCCGGGAAACCACGCAAGGGAUGGUGUCAAAUUCGGCGAAACCUAAGCGCCCGCCCGGGCGUAUGGCAACGCGGAGCCAAGCUUCGGCGCCUGCGCCGAUGCAGGUGUAGGGACUAGACGGCACCCACCUAAGGCCAACGCUAUGGUGAAGGCAUAGUCCAGGGAGAGGCGAAAGUCACACAAACCGG, the reverse-splicing fitness turned out to be 0.0152.
To GUGCCUUGCGCCGGGAAACCACGCAAGGGAUGGUGUCAAAUUCGGCGAAACCUAAGCGCCCGCCCGGGCGUAUGGCAACGCGGAGCCAAGCUUCGGCGCCUGCGCCGAUGCAGGUGUAGGGACUAGACGGCACCCACCUAAGGCCAACGCUAUGGUGAAGGCAUAGUCGAGGGAGAGGCGAAAGUCACACAAACCGG belongs 0.0233; to GUGCCUUGCGCCGGGAAACCACGCAAGGGAUGGUGUCAAAUUCGGCGAAACCUAAGCGCCCGCCCGGGCGUAUGGCAACGCGGAGCCAAGCUUCGGCGCCUGCGCCGAUGCAGGUGUAGGGACUAGACGGCACCCACCUAAGGCCAACGCUAUGGUGAAGGCAUAGUCGAGGGAGCGGCGAAAGUCACACAAACCGG, 0.0171; to GUGCCUUGCGCCGGGAAACCACGCAAGGGAUGGUGUCAAAUUCGGCGAAACCUAAGCGCCCGCCCGGGCGUAUGGCAACGCGGAGCCAAGCUUCGGCGCCUGCGCCGAUGCAGGUGUAGGGACUAGACGGCACCCACCUAAGGCCAACGCUAUGGUGAAGGCAUAGUCGAGGGAGGGGCGAAAGUCACACAAACCGG, 0.00429.
On to GUGCCUUGCGCCGGGAAACCACGCAAGGGAUGGUGUCAAAUUCGGCGAAACCUAAGCGCCCGCCCGGGCGUAUGGCAACGCGGAGCCAAGCUUCGGCGCCUGCGCCGAUGCAGGUGUAGGGACUAGACGGCACCCACCUAAGGCCAACGUUAUGGUGAAGGCAUAGUCCAGGGAGAGGCGAAAGUCACACAAACCGG, for which the reverse-splicing fitness came to 0.0103.
As for GUGCCUUGCGCCGGGAAACCACGCAAGGGAUGGUGUCAAAUUCGGCGAAACCUAAGCGCCCGCCCGGGCGUAUGGCAACGCGGAGCCAAGCUUCGGCGCCUGCGCCGAUGCAGGUGUAGGGACUAGACGGCACCCACCUAAGGCCAACGUUAUGGUGAAGGCAUAGUCCAGGGAGGGGCGAAAGUCACACAAACCGG, the reverse-splicing fitness was found to be 0.00478.
The value for GUGCCUUGCGCCGGGAAACCACGCAAGGGAUGGUGUCAAAUUCGGCGAAACCUAAGCGCCCGCCCGGGCGUAUGGCAACGCGGAGCCAAGCUUCGGCGCCUGCGCCGAUGCAGGUGUAGGGACUAGACGGCACCCACCUAAGGCCAACGUUAUGGUGAAGGCAUAGUCCAGGGAGCGGCGAAAGUCACACAAACCGG was 0.0125.
To GUGCCUUGCGCCGGGAAACCACGCAAGGGAUGGUGUCAAAUUCGGCGAAACCUAAGCGCCCGCCCGGGCGUAUGGCAACGCGGAGCCAAGCUUCGGCGCCUGCGCCGAUGCAGGUGUAGGGACUAGACGGCACCCACCUAAGGCGAACGAUAUGGUGAAGGCAUAGUCAAGGGAGGGGCGAAAGUCACACAAACCGG belongs 0.00723.
On to GUGCCUUGCGCCGGGAAACCACGCAAGGGAUGGUGUCAAAUUCGGCGAAACCUAAGCGCCCGCCCGGGCGUAUGGCAACGCGGAGCCAAGCUUCGGCGCCUGCGCCGAUGCAGGUGUAGGGACUAGACGGCACCCACCUAAGGCGAACGAUAUGGUGAAGGCAUAGUCAAGGGAGCGGCGAAAGUCACACAAACCGG, for which the reverse-splicing fitness was determined as 0.0198.
To GUGCCUUGCGCCGGGAAACCACGCAAGGGAUGGUGUCAAAUUCGGCGAAACCUAAGCGCCCGCCCGGGCGUAUGGCAACGCGGAGCCAAGCUUCGGCGCCUGCGCCGAUGCAGGUGUAGGGACUAGACGGCACCCACCUAAGGCGAACGAUAUGGUGAAGGCAUAGUCAAGGGAGAGGCGAAAGUCACACAAACCGG belongs 0.0181; to GUGCCUUGCGCCGGGAAACCACGCAAGGGAUGGUGUCAAAUUCGGCGAAACCUAAGCGCCCGCCCGGGCGUAUGGCAACGCGGAGCCAAGCUUCGGCGCCUGCGCCGAUGCAGGUGUAGGGACUAGACGGCACCCACCUAAGGCGAACGAUAUGGUGAAGGCAUAGUCAAGGGAGUGGCGAAAGUCACACAAACCGG, 0.0104; to GUGCCUUGCGCCGGGAAACCACGCAAGGGAUGGUGUCAAAUUCGGCGAAACCUAAGCGCCCGCCCGGGCGUAUGGCAACGCGGAGCCAAGCUUCGGCGCCUGCGCCGAUGCAGGUGUAGGGACUAGACGGCACCCACCUAAGGCGAACGAUAUGGUGAAGGCAUAGUCGAGGGAGUGGCGAAAGUCACACAAACCGG, 0.00949.
Regarding GUGCCUUGCGCCGGGAAACCACGCAAGGGAUGGUGUCAAAUUCGGCGAAACCUAAGCGCCCGCCCGGGCGUAUGGCAACGCGGAGCCAAGCUUCGGCGCCUGCGCCGAUGCAGGUGUAGGGACUAGACGGCACCCACCUAAGGCCAACGCUAUGGUGAAGGCAUAGUCAAGGGAGCGGCGAAAGUCACACAAACCGG, the reverse-splicing fitness worked out at 0.00939.
As for GUGCCUUGCGCCGGGAAACCACGCAAGGGAUGGUGUCAAAUUCGGCGAAACCUAAGCGCCCGCCCGGGCGUAUGGCAACGCGGAGCCAAGCUUCGGCGCCUGCGCCGAUGCAGGUGUAGGGACUAGACGGCACCCACCUAAGGCCAACGCUAUGGUGAAGGCAUAGUCAAGGGAGGGGCGAAAGUCACACAAACCGG, the reverse-splicing fitness is 0.00477.
For the variant GUGCCUUGCGCCGGGAAACCACGCAAGGGAUGGUGUCAAAUUCGGCGAAACCUAAGCGCCCGCCCGGGCGUAUGGCAACGCGGAGCCAAGCUUCGGCGCCUGCGCCGAUGCAGGUGUAGGGACUAGACGGCACCCACCUAAGGCCAACGCUAUGGUGAAGGCAUAGUCAAGGGAGAGGCGAAAGUCACACAAACCGG, the reverse-splicing fitness stood at 0.0138.
